Here are results for five molecules from publication PMC6457497, “The H3K27me3 demethylase REF6 promotes leaf senescence through directly activating major senescence regulatory and functional genes in Arabidopsis”.

Data set [1] concerns the target T1, GST-REF6C (C2H2 ZnF domain) (Arabidopsis thaliana, UniProt Q9STM3 1239-1360).
T1 sequence: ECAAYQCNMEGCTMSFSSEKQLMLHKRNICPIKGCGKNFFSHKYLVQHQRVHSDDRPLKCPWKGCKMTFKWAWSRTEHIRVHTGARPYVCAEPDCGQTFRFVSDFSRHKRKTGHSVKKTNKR
Description: EMSA; Light Shift EMSA kit binding buffer (composition, salt, pH not stated), poly(dI-dC), 4 ug protein in 20 ul, room temperature 30 min; 5% polyacrylamide gel with. Particulars: protein: recombinant; tags: N-terminal GST; label: biotin; blunt. For orientation: In EMSA bound probe runs differently from free probe, usually more slowly.

Data set [2] addresses T1, GST-REF6C (C2H2 ZnF domain). Description: EMSA; competed by excess unlabeled probe; Light Shift EMSA kit binding buffer (composition, salt, pH not stated), poly(dI-dC), 4 ug protein in 20 ul, room temperature 30 min; 5% polyacrylamide gel with. Particulars: protein: recombinant; tags: N-terminal GST; label: biotin; blunt.

B1: ORE1 WT probe (dsDNA)
DNA 1: TACTCGGATCCTCTGTTTTTACAAGACA
DNA 2: TGTCTTGTAAAAACAGAGGATCCGAGTA
For the molecule B1, the binding result in data set [1] is on record as “binds”.

B2: EIN2 WT probe (dsDNA)
DNA 1: AGGAACCATTCTCTGGATAAACCCTAGC
DNA 2: GCTAGGGTTTATCCAGAGAATGGTTCCT
Turning to B2, the binding result in data set [1] is given as “binds”.

B3: NYE1 WT probe (dsDNA)
DNA 1: AAAGGAGTCTCTCTGTATTTAGTGGCGT
DNA 2: ACGCCACTAAATACAGAGAGACTCCTTT
As to B3, the binding result in data set [2] is “binds”.

B4: NYE2 WT probe (dsDNA)
DNA 1: CAAAAAGGGTCTCTGTATTTAGTTATTA
DNA 2: TAATAACTAAATACAGAGACCCTTTTTG
For the molecule B4, in data set [1], the binding result was “binds”.

B5: NAP WT probe (dsDNA)
DNA 1: TTTCTCCAAACTCTGTTTTCTCTGTAAA
DNA 2: TTTACAGAGAAAACAGAGTTTGGAGAAA
Take B5: the binding result in data set [1] was “binds”.
